In patent US20250304707A1:
Numbering of substitutions follows the chain as printed.

T1: human APRIL/TNFSF13 (human), O75888
T1 chain: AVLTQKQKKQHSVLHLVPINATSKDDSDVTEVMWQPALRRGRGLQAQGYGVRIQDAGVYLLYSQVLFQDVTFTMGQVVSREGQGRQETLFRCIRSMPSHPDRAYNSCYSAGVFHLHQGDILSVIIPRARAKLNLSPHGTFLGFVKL

B1: human BCMA (soluble analyte of Examples 8 and 14), Q02223 1-54 (receptor, UniProt Q02223 1-54, looked up)
chain: MLQMAGQCSQNEYFDSLLHACIPCQLRCSSNTPPLTCQRYCNASVTNSVKGTNA
B2: 01-024 (scFv) (scFv, part only; not given: linker, domain order, Myc-His tags, V domains shown, not shown: another chain or arm of the molecule; small tags and cut ends)
VH: EVQLVQSGGGLVQSGGSLRVSCAASGFTFSSGLMSWVRQAPGKGFEWVSCYNGGSDRAGYTDSVKGRFTISRDNAKNTLYLQMNSLKPEDTAVYYCARYIANSGTYYWDYWGQGTTVTVSS
VL: QAVLTQPPSASGTPGQRVSISCSGGISNIGSNIVNWYQHLPGTAPKLLIYSGNQRPSGVPDRFSGSKSGTSASLAISGLQSEDEADYYCSSWDSDLRNWVFGGGTKLTVL
B3: 01-030 (scFv) (scFv, part only; not given: linker, domain order, Myc-His tags, V domains shown, not shown: another chain or arm of the molecule; small tags and cut ends)
VH: B2 VH with S14P, T28S, C50G, Y60F, T61A, K65E, T116L
VL: QSALTQPPSASGTPGQRVTISCSGSISNIGSNTVNWYQHLPGTAPKLLIYNHNQRPSGVPDRFSGSTSGTSASLAISGLQSEDEADYFCATWDDSLSAWLFGGGTKLTVL
B4: 01-026 (scFv) (scFv, part only; not given: linker, domain order, Myc-His tags, V domains shown, not shown: another chain or arm of the molecule; small tags and cut ends)
VH: B2 VH with C50G
VL: QSVLTQPPSVSGAPGQRVTISCTGSSSNIGAGYDVHWYQQLPGTAPKLVIYGNTNRPSGVPDRFSGSKSGTSASLAISGLQSEDEADYYCAAWDDSLNGWVFGGGTKLTVL
B5: 01-025 (scFv) (scFv, part only; not given: linker, domain order, Myc-His tags, V domains shown, not shown: another chain or arm of the molecule; small tags and cut ends)
VH: B2 VH with C50G
VL: QPVLTQPPSVSEAPRQRVTISCSGSSSNIGNNAVNWYQQLPGKAPKLLIYSTNQRPSGVPDRFSGSKSGTSASLAISGLQSEDEADYYCAAWDDRVSAWLFGGGTKLTVL
B6: 01-027 (scFv) (scFv, part only; not given: linker, domain order, Myc-His tags, V domains shown, not shown: another chain or arm of the molecule; small tags and cut ends)
VH: B2 VH with C50G
VL: B2 VL

Molecular target: T1, human APRIL/TNFSF13 (human), O75888
Test: BLI (Octet RED384), APRIL/TNFSF13 on AR2G sensors, 71 nM human BCMA analyte, no antibody
Settings: remark: other sources report otherwise

Response [nm]	Binder
0.659	B1

molecular target: biotinylated human BCMA (human) (UniProt Q02223); test: BLI (Octet RED384), biotinylated human BCMA on SAX sensors, scFv 1200 nM analyte, 1:1 model; settings: not given

Kd [nM]	Response [nm]	koff [s⁻¹]	kon [M⁻¹ s⁻¹]	Binder
1.5	0.174	0.00057	380000	B2
8.42	0.172	0.000939	112000	B3
59.6	0.115	0.00248	41700	B4
15.5	0.183	0.00128	82600	B5
3.38	0.171	0.00096	284000	B6
